Data as given in paper PMC9482650, “Quantitative fragmentomics allow affinity mapping of interactomes” (Nature Communications, 2022).

Experiments:
Experiment in all cases: holdup assay
Parameters in all cases: key: below the threshold = too weak to quantify, mostly under pKd 3.1 to 4
NHERF3_4, Q5T2W1 = biological target: T1, NHERF3_4, Q5T2W1
T1 sequence (Q5T2W1 373-468, limits assumed, looked up): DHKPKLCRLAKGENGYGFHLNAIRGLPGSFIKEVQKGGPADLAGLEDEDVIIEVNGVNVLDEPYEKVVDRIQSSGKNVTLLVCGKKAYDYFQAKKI

FRMPD2_3, Q68DX3 = biological target: FRMPD2_3, Q68DX3
FRMPD2_3, Q68DX3, sequence (Q68DX3 1073-1166): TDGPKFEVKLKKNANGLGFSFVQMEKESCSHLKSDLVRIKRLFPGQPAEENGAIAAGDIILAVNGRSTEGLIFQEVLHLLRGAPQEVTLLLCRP

DLG2_2, Q15700 = biological target: DLG2_2, Q15700
DLG2_2, Q15700, sequence (Q15700 189-283): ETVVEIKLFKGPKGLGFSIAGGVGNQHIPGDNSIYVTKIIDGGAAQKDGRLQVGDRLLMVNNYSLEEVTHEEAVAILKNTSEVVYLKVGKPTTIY

LNX1_1, Q8TBB1 = biological target: LNX1_1, Q8TBB1
LNX1_1, Q8TBB1, sequence (Q8TBB1 261-371): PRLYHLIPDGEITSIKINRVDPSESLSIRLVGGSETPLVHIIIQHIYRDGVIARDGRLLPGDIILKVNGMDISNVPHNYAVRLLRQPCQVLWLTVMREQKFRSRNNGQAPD

SCRIB_3, Q14160 = biological target: SCRIB_3, Q14160
SCRIB_3, Q14160, sequence (Q14160 999-1103): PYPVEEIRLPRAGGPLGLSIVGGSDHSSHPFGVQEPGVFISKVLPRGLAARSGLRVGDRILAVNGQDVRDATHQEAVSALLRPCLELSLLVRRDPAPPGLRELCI

RADIL, Q96JH8 = biological target: T2, RADIL, Q96JH8
T2 sequence (Q96JH8 971-1071, limits assumed, looked up): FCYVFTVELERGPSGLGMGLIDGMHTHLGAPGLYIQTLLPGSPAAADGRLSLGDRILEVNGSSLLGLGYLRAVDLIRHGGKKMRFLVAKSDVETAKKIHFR

PDZRN4_1, Q6ZMN7 = biological target: PDZRN4_1, Q6ZMN7
PDZRN4_1, Q6ZMN7, sequence (Q6ZMN7 213-318): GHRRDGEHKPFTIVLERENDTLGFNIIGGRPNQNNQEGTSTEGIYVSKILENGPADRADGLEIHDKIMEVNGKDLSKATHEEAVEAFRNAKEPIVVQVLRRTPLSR

NOS1, P29475 = biological target: NOS1, P29475
NOS1, P29475, sequence (P29475 9-101): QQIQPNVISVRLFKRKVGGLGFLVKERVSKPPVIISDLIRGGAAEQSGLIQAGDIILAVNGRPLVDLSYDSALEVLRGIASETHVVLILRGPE

DLG4_1, P78352 = biological target: DLG4_1, P78352
DLG4_1, P78352, sequence (P78352 62-152): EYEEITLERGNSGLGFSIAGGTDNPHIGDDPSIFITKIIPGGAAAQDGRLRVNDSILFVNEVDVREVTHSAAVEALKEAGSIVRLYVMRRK

FRMPD4, Q14CM0 = biological target: FRMPD4, Q14CM0
FRMPD4, Q14CM0, sequence (Q14CM0 67-160): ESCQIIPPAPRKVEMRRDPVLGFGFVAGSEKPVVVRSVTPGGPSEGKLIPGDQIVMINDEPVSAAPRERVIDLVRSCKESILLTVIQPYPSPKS

PTPN3, P26045 = biological target: PTPN3, P26045
PTPN3, P26045, sequence (P26045 505-587): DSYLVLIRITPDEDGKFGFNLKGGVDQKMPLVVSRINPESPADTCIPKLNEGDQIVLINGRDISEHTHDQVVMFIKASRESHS

Inadl_10, Q8NI35 = biological target: Inadl_10, Q8NI35
Inadl_10, Q8NI35, sequence (Q8NI35 1673-1763): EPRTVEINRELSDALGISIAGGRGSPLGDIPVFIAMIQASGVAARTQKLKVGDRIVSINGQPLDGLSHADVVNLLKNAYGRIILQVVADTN

APBA3_1, O96018 = biological target: T3, APBA3_1, O96018
T3 sequence (O96018 389-490, limits assumed, looked up): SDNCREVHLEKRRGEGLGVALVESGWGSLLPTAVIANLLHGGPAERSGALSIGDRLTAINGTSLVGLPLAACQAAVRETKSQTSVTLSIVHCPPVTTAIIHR

ARHGAP21, Q5T5U3 = biological target: T4, ARHGAP21, Q5T5U3
T4 sequence (Q5T5U3 45-169, limits assumed, looked up): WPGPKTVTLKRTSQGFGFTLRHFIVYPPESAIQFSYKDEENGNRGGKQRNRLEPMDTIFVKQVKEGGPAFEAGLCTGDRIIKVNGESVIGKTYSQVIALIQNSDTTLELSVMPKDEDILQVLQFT

Inadl_6, Q8NI35 = biological target: Inadl_6, Q8NI35
Inadl_6, Q8NI35, sequence (Q8NI35 1058-1167): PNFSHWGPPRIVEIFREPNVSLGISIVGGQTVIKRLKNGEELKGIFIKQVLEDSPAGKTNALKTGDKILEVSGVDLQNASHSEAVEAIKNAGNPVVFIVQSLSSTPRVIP

LDB3, O75112 = biological target: LDB3, O75112
LDB3, O75112, sequence (O75112 1-94): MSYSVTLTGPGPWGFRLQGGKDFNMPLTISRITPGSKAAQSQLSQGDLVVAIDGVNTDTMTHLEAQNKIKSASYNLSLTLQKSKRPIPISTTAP

GRIP2_5, Q9C0E4 = biological target: GRIP2_5, Q9C0E4
GRIP2_5, Q9C0E4, sequence (Q9C0E4 544-642): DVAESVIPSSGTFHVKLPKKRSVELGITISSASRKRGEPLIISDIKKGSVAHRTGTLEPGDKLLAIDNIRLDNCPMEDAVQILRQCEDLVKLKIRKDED

MAGI2_2, Q86UL8 = biological target: MAGI2_2, Q86UL8
MAGI2_2, Q86UL8, sequence (Q86UL8 410-522): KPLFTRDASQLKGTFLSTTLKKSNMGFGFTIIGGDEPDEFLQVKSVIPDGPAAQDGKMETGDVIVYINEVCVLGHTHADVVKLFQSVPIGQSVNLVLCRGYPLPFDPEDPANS

ARHGEF12, Q9NZN5-2 = biological target: ARHGEF12, Q9NZN5-2
ARHGEF12, Q9NZN5-2, sequence (Q9NZN5 other isoform, or with tags, fused parts or gaps): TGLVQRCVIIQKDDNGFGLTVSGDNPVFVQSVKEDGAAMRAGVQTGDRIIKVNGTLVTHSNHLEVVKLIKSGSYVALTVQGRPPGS

MAGI2_4, Q86UL8 = biological target: MAGI2_4, Q86UL8
MAGI2_4, Q86UL8, sequence (Q86UL8 772-865): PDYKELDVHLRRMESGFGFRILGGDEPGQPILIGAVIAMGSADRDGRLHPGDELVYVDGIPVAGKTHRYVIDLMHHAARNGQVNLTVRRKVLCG

DVL3, Q92997 = biological target: T5, DVL3, Q92997
T5 sequence (Q92997 244-331, limits assumed, looked up): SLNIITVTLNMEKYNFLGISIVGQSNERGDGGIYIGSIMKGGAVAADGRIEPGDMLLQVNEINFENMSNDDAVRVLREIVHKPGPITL

MAGI3_2, Q5TCQ9 = biological target: MAGI3_2, Q5TCQ9
MAGI3_2, Q5TCQ9, sequence (Q5TCQ9 398-503): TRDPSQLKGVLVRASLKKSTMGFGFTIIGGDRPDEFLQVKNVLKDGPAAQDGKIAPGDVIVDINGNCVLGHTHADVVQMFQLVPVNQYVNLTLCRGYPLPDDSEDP

LNX1_2, Q8TBB1 = biological target: LNX1_2, Q8TBB1
LNX1_2, Q8TBB1, sequence (Q8TBB1 371-470): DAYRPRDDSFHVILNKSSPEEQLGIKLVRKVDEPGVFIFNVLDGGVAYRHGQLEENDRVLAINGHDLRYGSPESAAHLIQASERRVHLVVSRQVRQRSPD

MPDZ_10, O75970 = biological target: T6, MPDZ_10, O75970
T6 sequence (O75970 1624-1722, limits assumed, looked up): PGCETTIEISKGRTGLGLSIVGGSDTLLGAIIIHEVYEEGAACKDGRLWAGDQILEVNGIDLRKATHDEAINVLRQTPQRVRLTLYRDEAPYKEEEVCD

MAGI1_1, Q96QZ7 = biological target: MAGI1_1, Q96QZ7
MAGI1_1, Q96QZ7, sequence (Q96QZ7 1-106): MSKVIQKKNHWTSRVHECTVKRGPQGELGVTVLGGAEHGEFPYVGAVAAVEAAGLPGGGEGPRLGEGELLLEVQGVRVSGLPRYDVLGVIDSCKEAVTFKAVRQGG

CARD11, Q9BXL7 = biological target: T7, CARD11, Q9BXL7
T7 sequence (Q9BXL7 662-765, limits assumed, looked up): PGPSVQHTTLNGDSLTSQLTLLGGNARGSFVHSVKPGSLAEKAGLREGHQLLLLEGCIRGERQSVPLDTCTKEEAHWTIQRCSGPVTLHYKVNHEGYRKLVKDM

MPP7, Q5T2T1 = biological target: T8, MPP7, Q5T2T1
T8 sequence (Q5T2T1 134-230, limits assumed, looked up): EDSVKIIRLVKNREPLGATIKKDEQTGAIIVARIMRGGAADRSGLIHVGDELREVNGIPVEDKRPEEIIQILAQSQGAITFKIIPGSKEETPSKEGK

GORASP1, Q9BQQ3 = biological target: GORASP1, Q9BQQ3
GORASP1, Q9BQQ3, sequence (Q9BQQ3 1-208): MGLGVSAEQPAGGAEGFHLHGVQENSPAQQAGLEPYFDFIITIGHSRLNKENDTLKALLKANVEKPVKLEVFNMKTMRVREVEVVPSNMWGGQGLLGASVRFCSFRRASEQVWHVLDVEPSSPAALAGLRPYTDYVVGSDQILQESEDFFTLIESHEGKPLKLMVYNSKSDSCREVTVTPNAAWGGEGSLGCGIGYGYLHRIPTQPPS

MAGI2_3, Q86UL8 = biological target: MAGI2_3, Q86UL8
MAGI2_3, Q86UL8, sequence (Q86UL8 600-682): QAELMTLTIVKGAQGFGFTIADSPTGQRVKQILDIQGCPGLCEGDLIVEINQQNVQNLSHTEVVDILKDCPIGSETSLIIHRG

Inadl_9, Q8NI35 = biological target: Inadl_9, Q8NI35
Inadl_9, Q8NI35, sequence (Q8NI35 1530-1615): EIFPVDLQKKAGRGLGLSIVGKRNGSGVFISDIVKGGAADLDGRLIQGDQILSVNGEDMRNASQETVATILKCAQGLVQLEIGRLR

[1] = plain residues with an end cap or a label only (N-terminal biotin on a linker: ado-ado)
[2] = modified: phospho on T at position -2 from the C-terminal residue

B1: CACNG4, Q9UBN1 (peptide)
chain: SMLNRRTTPV
NHERF3_4, Q5T2W1; [1]
  pKd: 3.5
FRMPD2_3, Q68DX3; [1]
  pKd: below the threshold
DLG2_2, Q15700; [1]
  pKd: 4.51
LNX1_1, Q8TBB1; [1]
  pKd: below the threshold
SCRIB_3, Q14160; [1]
  pKd: 4.11
RADIL, Q96JH8; [1]
  pKd: below the threshold
PDZRN4_1, Q6ZMN7; [1]
  pKd: 3.75
NOS1, P29475; [1]
  pKd: 3.98
DLG4_1, P78352; [1]
  pKd: 4.51
FRMPD4, Q14CM0; [1]
  pKd: below the threshold
PTPN3, P26045; [1]
  pKd: 4.54
Inadl_10, Q8NI35; [1]
  pKd: below the threshold
APBA3_1, O96018; [1]
  pKd: below the threshold
ARHGAP21, Q5T5U3; [1]
  pKd: 3.97
Inadl_6, Q8NI35; [1]
  pKd: below the threshold
LDB3, O75112; [1]
  pKd: below the threshold
GRIP2_5, Q9C0E4; [1]
  pKd: below the threshold
MAGI2_2, Q86UL8; [1]
  pKd: 5.03
ARHGEF12, Q9NZN5-2; [1]
  pKd: 3.86
MAGI2_4, Q86UL8; [1]
  pKd: 3.52
DVL3, Q92997; [1]
  pKd: below the threshold
MAGI3_2, Q5TCQ9; [1]
  pKd: 5.19
LNX1_2, Q8TBB1; [1]
  pKd: 3.75
MPDZ_10, O75970; [1]
  pKd: 3.92
MAGI1_1, Q96QZ7; [1]
  pKd: below the threshold
CARD11, Q9BXL7; [1]
  pKd: below the threshold
MPP7, Q5T2T1; [1]
  pKd: below the threshold
GORASP1, Q9BQQ3; [1]
  pKd: below the threshold
MAGI2_3, Q86UL8; [1]
  pKd: below the threshold
Inadl_9, Q8NI35; [1]
  pKd: below the threshold

B2: RPS6KA1_-2P, Q15418 (peptide)
chain: RRVRKLPSTTL
NHERF3_4, Q5T2W1; [2]
  pKd: below the threshold
FRMPD2_3, Q68DX3; [2]
  pKd: below the threshold
DLG2_2, Q15700; [2]
  pKd: below the threshold
LNX1_1, Q8TBB1; [2]
  pKd: below the threshold
SCRIB_3, Q14160; [2]
  pKd: below the threshold
RADIL, Q96JH8; [2]
  pKd: below the threshold
PDZRN4_1, Q6ZMN7; [2]
  pKd: below the threshold
NOS1, P29475; [2]
  pKd: below the threshold
DLG4_1, P78352; [2]
  pKd: below the threshold
FRMPD4, Q14CM0; [2]
  pKd: 3.48
PTPN3, P26045; [2]
  pKd: below the threshold
Inadl_10, Q8NI35; [2]
  pKd: below the threshold
APBA3_1, O96018; [2]
  pKd: below the threshold
ARHGAP21, Q5T5U3; [2]
  pKd: below the threshold
Inadl_6, Q8NI35; [2]
  pKd: below the threshold
LDB3, O75112; [2]
  pKd: 3.47
GRIP2_5, Q9C0E4; [2]
  pKd: below the threshold
MAGI2_2, Q86UL8; [2]
  pKd: below the threshold
ARHGEF12, Q9NZN5-2; [2]
  pKd: below the threshold
MAGI2_4, Q86UL8; [2]
  pKd: below the threshold
DVL3, Q92997; [2]
  pKd: below the threshold
MAGI3_2, Q5TCQ9; [2]
  pKd: below the threshold
LNX1_2, Q8TBB1; [2]
  pKd: below the threshold
MPDZ_10, O75970; [2]
  pKd: below the threshold
MAGI1_1, Q96QZ7; [2]
  pKd: below the threshold
CARD11, Q9BXL7; [2]
  pKd: below the threshold
MPP7, Q5T2T1; [2]
  pKd: below the threshold
GORASP1, Q9BQQ3; [2]
  pKd: 3.75
MAGI2_3, Q86UL8; [2]
  pKd: below the threshold
Inadl_9, Q8NI35; [2]
  pKd: below the threshold
